We go through one substance from article PMC8713289.

A word on the stoichiometry N: it is the number of molecules, sites or subunits per partner or assembly.

Experiment [1] has as its target Interferon alpha-2a (human) (UniProt P01563). The experiment is described as follows: AUC; sedimentation velocity, 50000 rpm, histidine pH 5, 0 or 140 mM NaCl, 0.8, 0.4 and 0.2 mg/mL (A280 = 1, 0.5, 0.25); monomer with a dimer in fast equilibrium with higher oligomers.
Experiment [2] has the same target. Description: AUC; sedimentation velocity, 50000 rpm, histidine pH 7.5, 0 or 140 mM NaCl, 0.8, 0.4 and 0.2 mg/mL (A280 = 1, 0.5, 0.25); dimers and larger oligomers in concentration-dependent equilibrium.

For the substance “Interferon alpha-2a (from UniProt P01563 24-188) (natural protein)”, the stoichiometry N in experiment [1] is > 2 >=; in experiment [2], 2.
